T1: human FLT3 (hFLT3) expressed on cells (human, UniProt P36888 27-993)
T1 sequence (looked up): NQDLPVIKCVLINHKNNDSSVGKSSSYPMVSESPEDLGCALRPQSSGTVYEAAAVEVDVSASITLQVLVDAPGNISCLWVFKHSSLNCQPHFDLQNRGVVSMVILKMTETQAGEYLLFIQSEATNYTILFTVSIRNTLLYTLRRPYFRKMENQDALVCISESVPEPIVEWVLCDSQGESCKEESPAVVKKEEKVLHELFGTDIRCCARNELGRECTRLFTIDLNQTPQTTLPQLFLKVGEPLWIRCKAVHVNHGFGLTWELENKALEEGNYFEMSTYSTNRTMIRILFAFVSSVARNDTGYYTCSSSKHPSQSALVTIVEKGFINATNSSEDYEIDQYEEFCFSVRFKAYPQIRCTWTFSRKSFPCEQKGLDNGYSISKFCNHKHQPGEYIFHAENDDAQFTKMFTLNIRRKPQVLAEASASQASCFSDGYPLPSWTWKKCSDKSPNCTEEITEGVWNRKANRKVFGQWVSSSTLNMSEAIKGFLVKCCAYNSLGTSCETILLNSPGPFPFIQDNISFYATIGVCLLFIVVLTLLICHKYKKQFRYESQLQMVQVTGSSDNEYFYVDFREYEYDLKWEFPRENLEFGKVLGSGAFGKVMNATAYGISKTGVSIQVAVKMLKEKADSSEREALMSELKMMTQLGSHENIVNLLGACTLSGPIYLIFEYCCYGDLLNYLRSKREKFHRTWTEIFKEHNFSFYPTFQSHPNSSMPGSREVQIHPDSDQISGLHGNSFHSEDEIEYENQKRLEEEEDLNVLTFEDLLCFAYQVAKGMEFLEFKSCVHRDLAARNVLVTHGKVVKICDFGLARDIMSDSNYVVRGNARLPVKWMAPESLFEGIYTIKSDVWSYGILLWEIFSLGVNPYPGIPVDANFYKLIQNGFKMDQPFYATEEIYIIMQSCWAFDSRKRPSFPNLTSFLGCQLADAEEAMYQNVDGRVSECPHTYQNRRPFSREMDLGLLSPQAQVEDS

T2: hFLT3-His fusion protein (human, UniProt P36888 27-541, limits assumed)
T2 construct: Soluble recombinant antigen used for immunisation, ELISA, SPR and BLI binning; also called recombinant hFLT3 protein; not shown: His tag
T2 sequence (looked up): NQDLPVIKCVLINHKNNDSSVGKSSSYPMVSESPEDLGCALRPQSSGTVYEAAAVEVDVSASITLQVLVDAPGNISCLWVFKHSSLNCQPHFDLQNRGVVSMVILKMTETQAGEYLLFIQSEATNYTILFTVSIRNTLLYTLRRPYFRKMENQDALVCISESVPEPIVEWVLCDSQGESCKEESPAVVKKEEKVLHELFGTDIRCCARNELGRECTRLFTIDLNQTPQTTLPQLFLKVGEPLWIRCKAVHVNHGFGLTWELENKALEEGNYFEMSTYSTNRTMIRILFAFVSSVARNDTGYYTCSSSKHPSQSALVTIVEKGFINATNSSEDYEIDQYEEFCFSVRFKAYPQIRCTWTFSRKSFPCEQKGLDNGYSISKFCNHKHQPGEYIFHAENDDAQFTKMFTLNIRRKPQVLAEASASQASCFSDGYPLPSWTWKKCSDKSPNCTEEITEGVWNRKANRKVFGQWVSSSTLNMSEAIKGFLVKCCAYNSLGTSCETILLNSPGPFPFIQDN

T3: cynomolgus monkey FLT3 (cFLT3) expressed on RMA cells (cynomolgus monkey, UniProt A0A2K5VQ48 27-993)
T3 construct: whole, on cells; also called RMA-cFLT3; cynomolgus FLT3
T3 sequence: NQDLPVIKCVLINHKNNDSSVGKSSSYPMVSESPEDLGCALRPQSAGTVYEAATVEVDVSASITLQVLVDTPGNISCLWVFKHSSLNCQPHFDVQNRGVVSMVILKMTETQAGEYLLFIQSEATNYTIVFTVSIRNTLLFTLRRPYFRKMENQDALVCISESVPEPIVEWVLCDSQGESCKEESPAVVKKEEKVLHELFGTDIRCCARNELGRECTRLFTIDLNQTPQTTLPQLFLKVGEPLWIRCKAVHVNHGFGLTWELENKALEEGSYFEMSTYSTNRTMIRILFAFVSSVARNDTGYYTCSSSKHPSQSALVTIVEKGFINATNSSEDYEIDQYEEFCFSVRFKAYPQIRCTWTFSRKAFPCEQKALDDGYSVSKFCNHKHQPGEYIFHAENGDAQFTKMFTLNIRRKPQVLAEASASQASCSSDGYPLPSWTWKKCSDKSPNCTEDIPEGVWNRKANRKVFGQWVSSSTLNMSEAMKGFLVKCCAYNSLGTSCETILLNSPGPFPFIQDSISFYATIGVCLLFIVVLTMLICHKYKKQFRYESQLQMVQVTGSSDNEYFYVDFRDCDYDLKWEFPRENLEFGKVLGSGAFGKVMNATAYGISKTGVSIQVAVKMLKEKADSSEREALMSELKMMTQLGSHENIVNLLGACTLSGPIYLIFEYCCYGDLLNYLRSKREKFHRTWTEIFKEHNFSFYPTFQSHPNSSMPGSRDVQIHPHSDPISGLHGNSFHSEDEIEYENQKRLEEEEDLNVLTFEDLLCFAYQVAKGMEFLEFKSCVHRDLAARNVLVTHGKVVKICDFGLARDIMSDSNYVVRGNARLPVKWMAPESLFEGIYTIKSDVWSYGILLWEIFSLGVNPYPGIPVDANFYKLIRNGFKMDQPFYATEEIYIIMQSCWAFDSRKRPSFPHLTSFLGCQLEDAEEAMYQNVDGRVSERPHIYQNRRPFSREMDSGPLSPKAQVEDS

B1: FLT3-ligand (ligand, human, UniProt P49771 27-185, looked up)
chain: TQDCSFQHSPISSDFAVKIRELSDYLLQDYPVTVASNLQDEELCGGLWRLVLAQRWMERLKTVAGSKMQGLLERVNTEIHFVTKCAFQPPPSCLRFVQTNISRLLQETSEQLVALKPWITRQNFSRCLELQCQPDSSTLPPPWSPRPLEATAPTAPQPP
B2: 14A5.E8 (antibody, V domains shown)
VH: EVQLQESGAELVQPGASVRLSCKASGYTFTSYWINWVKQRPGQGLEWIGNIYPGSSIINYNENFKNRATLTVDTSSSTAYMQLSSLTSDDSAVYYCARRVVYLYFDYWGQGTTLTVSS
VL: QIVLTQSPAIMSASPGEKVTMTCSASSSVSYMHWYQQKSGTSPKRWIYDTSKLASGVPARFSGSGSGTSYSLTISSMEAEDAATYYCQQWTSKSPTFGGGTKLEIK
notes: Purified murine mAb from a hybridoma subclone
B3: 15A11.C8 (antibody, V domains shown)
VH: EVQLQESGGGLVKTGGSRKLSCAASGFTFSDYGMHWVRHTPEKGLEWVVYISSGGNTIFYTDTVKGRFTISRDNAKNTLFLQMTSLRSEDTAVYFCVRQGYYYAMDYWGQGASVTVSS
VL: DIQMTQTTSSLSASLGDRVTIRCRASQDITNYLNWYQQKPDGAVKLLISYTSILQSGVPSRFSGSGSGTDYSLTISNLEQGDVATYFCQQGSSLPWTFGGGTKLEIK
notes: as for B2

Key:
[1] = target: T1, human FLT3 (hFLT3) expressed on cells; assay: cell-based or functional assay
[2] = target: T1, human FLT3 (hFLT3) expressed on cells; assay: flow cytometry, purified mAb on SEM cells
hFLT3-His fusion protein = target: T2, hFLT3-His fusion protein; assay: SPR, purified murine subclone mAb, hFLT3-His
[3] = target: T3, cynomolgus monkey FLT3 (cFLT3) …; assay: flow cytometry, purified mAb on RMA-cFLT3 cells
[4] = target: T1, human FLT3 (hFLT3) expressed on cells; assay: flow cytometry, purified mAb on RMA-hFLT3 cells

Row | Binder | pFLT3 levels (pFLT3 ELISA, EOL-1 cells) [1] [fold] | EC50 [2] [nM] | Max MFI [2] [MFI] | Kd (hFLT3-His fusion protein) [nM] | koff (hFLT3-His fusion protein) [s⁻¹] | kon (hFLT3-His fusion protein) [M⁻¹ s⁻¹] | EC50 [3] [nM] | Max MFI [3] [MFI] | EC50 [4] [nM] | Max MFI [4] [MFI]
1 | B1 | 3 |  |  |  |  |  |  |  |  | 
2 | B2 |  | ~1.07 | 1960 | 15.1 | 0.0019 | 130000 | 1.25 | 1780 | ~2.07 | 415
3 | B3 |  | ~1.13 | 3860 | 10.5 | 0.00048 | 45000 | 0.82 | 6510 | 0.41 | 1410

Source: patent publication US20240117054A1 (DRAGONFLY THERAPEUTICS, published 2024)
